Columns and labels:
[1] = target: mature SsTroA domain (residues 36–317) (Streptococcus suis serotype 2 (strain 05ZYH33)); test: SEC; analytical FPLC Superdex 200 profile of purified SsTroA
[2] = target: mature SsTroA domain (residues 36–317) (Streptococcus suis serotype 2 (strain 05ZYH33)); test: AUC; sedimentation velocity profiles analysed with SEDFIT; 1 mg/ml protein in 20 mM Tris-HCl (pH 8.0), 50 mM NaCl; 50,000 rpm, 20°C; monomer and dimer

stoichiometry N [1]: 2 | percent of the total protein in the dimer peak [2]: 6.8% | stoichiometry N [2]: 2
Substance: mature SsTroA domain (residues 36–317) (domain or fragment)

From article PMC3097204
